For seven molecules, Kd results are on record in patent US20150374663A1.

Ends that are not written are not given here.

For test [1], the target named is type V tartrate-resistant acid phosphatase (TRAP) protein, immobilised on CM5 sensor chip. Briefly: SPR, TRAP-functionalized surface, binding curve fit (n = 2, Ave. ± StDev). In general terms: SPR reads the build-up and loss of mass on a sensor chip optically.
Test [2] has the same target. The test can be described thus: SPR, TRAP-functionalized surface; lower end of the range told of the peptide-functionalized polymers, tied to the 20% polymer through Table 1.
Test [3] shares this target. The test can be described thus: SPR, TRAP-functionalized surface; upper end of the range told of the peptide-functionalized polymers, tied to the 5% polymer through Table 1.
The target is the same in test [4]. Briefly: SPR, TRAP amine-coupled to CM5 chip, initial rate analysis of sensorgrams.

B1: 20% peptide monomer TBP-functionalized PEG polymer of Table 1 (Mn 26700 Da, 17.1% peptide incorporated) (peptide)
peptide: TPLSYLKGLVTVG-OH
modifications: not fully specified (N-terminus); also: RAFT random copolymer with PEG monomethyl ether methacrylate
What is called Kd is the free concentration of one partner at which half of the binding sites on the other are occupied at equilibrium, for simple one-to-one binding. A lower Kd goes with higher affinity. As for B1, the results for the Kd in test [1] and in test [2] were 7.5 µM and 7.1 to 21 µM, respectively.

B2: 5% peptide monomer TBP-functionalized PEG polymer of Table 1 (Mn 103900 Da, 3.9% peptide incorporated) (peptide)
peptide: TPLSYLKGLVTVG-OH
modifications: not fully specified (N-terminus); also: RAFT random copolymer with PEG monomethyl ether methacrylate
As to B2, the values for the Kd in test [1] and in test [3] were 21.7 µM and 7.1 to 21 µM, respectively.

B3: 5% TBP-functionalized PEG polymer of Table 4, M:CTA:I 125:1:0.1, Mn 17.1 kDa (peptide)
peptide: TPLSYLKGLVTVG-OH
modifications: not fully specified (N-terminus); also: RAFT copolymer with PEG methyl ether methacrylate (300 Da), about 3 peptides per chain
Molecule B3 yielded a Kd in test [4] of 70 µM.

B4: 10% peptide monomer TBP-functionalized PEG polymer of Table 1 (Mn 69000 Da, 7.5% peptide incorporated) (peptide)
peptide: TPLSYLKGLVTVG-OH
modifications: not fully specified (N-terminus); also: RAFT random copolymer with PEG monomethyl ether methacrylate
For B4, in test [1], the equilibrium dissociation constant (Kd) was found to be 12.7 µM.

B5: 5% TBP-functionalized PEG polymer of Table 4, M:CTA:I 250:1:0.1, Mn 42.3 kDa (peptide)
peptide: TPLSYLKGLVTVG-OH
modifications: not fully specified (N-terminus); also: RAFT copolymer with PEG methyl ether methacrylate (300 Da), about 5 peptides per chain
With B5, in test [4], the dissociation constant (Kd) came out at 80 µM.

B6: 20% TBP-functionalized PEG polymer of Table 4, M:CTA:I 500:1:0.1, Mn 32.7 kDa (peptide)
peptide: TPLSYLKGLVTVG-OH
modifications: not fully specified (N-terminus); also: RAFT copolymer with PEG methyl ether methacrylate (300 Da), about 12 peptides per chain
Molecule B6 returned a Kd in test [4] of 70 µM.

B7: 5% TBP-functionalized PEG polymer of Table 4, M:CTA:I 600:1:0.1, Mn 98.2 kDa (peptide)
peptide: TPLSYLKGLVTVG-OH
modifications: not fully specified (N-terminus); also: RAFT copolymer with PEG methyl ether methacrylate (300 Da), about 11 peptides per chain
In turn, B7 yielded a Kd in test [4] of 140 µM.
